For test [1], the target named is T1, human PD-L1 expressed on cells (HCC827 cells; PD-L1 aAPC/CHO-K1 cells) (human, UniProt Q9NZQ7 19-290). Briefly: cell-based or functional assay.
Test [2] concerns the target T2, PDL1-hFc (UniProt Q9NZQ7 19-238).
T2 construct: Coated at 1 µg/ml in the ELISAs of the chimeric and humanized antibodies; construct not described
The test can be described thus: ELISA titration on PDL1-hFc, KD compared with parental 3C3 (FIG. 10). How it is done: (§1) ELISA plates were coating with PDL1-hFc 1 ug/ml and blocked by 5% milk PBS, then add assay antibodies form 45 nM to 2.7×10⁻³ nM dilute (4× fold dilution). Assay will measured by add goat anti-human KAPPA HRP IgG 1:4000 and binding curve and KD was determined by GraphPad Prism software using One site-specific binding for none linear fit methods.
(An ELISA detects its analyte on a solid surface through an enzyme-linked reagent.)

Test [3] concerns the target T2, PDL1-hFc. The test can be described thus: ELISA titration on PDL1-hFc 1 ug/ml, 45 nM to 2.7×10^-3 nM, one site-specific binding fit. How it is done:
as §1

Test [4] deals with T2, PDL1-hFc. The test can be described thus: ELISA, PDL1-hFc coated 1 µg/ml, antibody supernatant at 300 ng/ml, anti-human Kappa HRP. How it is done:
The binding activity of humanized antibodies could be efficiently compared by all combination of heavy chains and light chains using mini scale antibody expression. The concentration of antibodies in culture supernatant was determent by anti-human IgG ELISA. For PDL1 ELISA, plates were coating with PDL1-hFc 1 μg/ml and blocked by 5% milk PBS. Assay antibodies were adjusted to 300 ng/ml, 100 μl/well. Anti-PDL1 signals were measured by secondary goat anti-human Kappa HRP IgG 1:4000 and color developed by TMB substrates (KPL). Optical absorption value was measured at OD450-655 nm by Bio-Rad ELISA reader.

Test [5] has as its target T1, human PD-L1 expressed on cells (HCC827 …). The test can be described thus: cell-based or functional assay. The source holds these as a separate data set.
The target is the same in test [6]. Briefly: cell-based or functional assay. This is another data set of the same source.
Test [7] concerns the target T3, human PD-L1 (coated on ELISA plate) (human, UniProt Q9NZQ7 19-238, limits assumed).
T3 construct: construct not described; also called CD274; B7 homolog 1
The test can be described thus: ELISA, PD-L1 coated 0.1 µg/well, goat anti-mouse IgG-HRP. How it is done:
Briefly, PD-L1 was coated on a 96-well ELISA plate (0.1 μg/well). After binding of anti-PD-L1 antibodies, a goat anti mouse IgG conjugated with horse radish peroxidase (HRP) was used as a second antibody and 3,3′,5,5′-Tetramethylbenzidine (TMB) was used as a substrate to assess the antibody-PD-L1 bindings. The OD405 was read to calculate the activities.

As usually defined, the Kd is the free concentration of one partner at which half of the binding sites on the other are occupied at equilibrium, for simple one-to-one binding. Low readings indicate a tighter complex, high ones a looser complex.

T1 sequence (Q9NZQ7 19-290): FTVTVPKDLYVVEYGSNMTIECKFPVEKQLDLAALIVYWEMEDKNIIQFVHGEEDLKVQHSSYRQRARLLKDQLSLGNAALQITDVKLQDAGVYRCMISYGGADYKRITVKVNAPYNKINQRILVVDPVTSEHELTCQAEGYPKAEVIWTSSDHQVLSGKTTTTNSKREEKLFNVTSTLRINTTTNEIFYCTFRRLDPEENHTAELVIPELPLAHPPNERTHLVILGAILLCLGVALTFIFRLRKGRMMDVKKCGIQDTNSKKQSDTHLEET
T2 sequence (Q9NZQ7 19-238): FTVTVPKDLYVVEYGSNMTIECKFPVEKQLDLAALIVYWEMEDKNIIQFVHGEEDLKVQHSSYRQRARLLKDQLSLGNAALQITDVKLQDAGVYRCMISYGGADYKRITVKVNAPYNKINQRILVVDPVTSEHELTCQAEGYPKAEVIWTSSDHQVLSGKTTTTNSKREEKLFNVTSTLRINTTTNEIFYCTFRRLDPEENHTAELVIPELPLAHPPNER
T3 sequence (Q9NZQ7 19-238 limits assumed): as the sequence (Q9NZQ7 19-238) above

B1: 3C3 humanized antibody HuB2Hu (antibody, V domains shown)
VH: EVQLQESGPGLVKPSQTLSLTCTVSGYSITSDYWDWIRKPPGKGLEYMGYISYTGSTYYNPSLRSRITISRDTSKNQYSLKLSSVTAADTAVYYCARRGGWLSPFVYWGQGTLVTVSS
VL: DIQMTQSPSSLSASVGDRVTITCKSRQSLLFSSNQKNSLAWYQQKPGKAPKLLIYWASTRESGVPSRFSGSGSGTDFTLTISSLQPEDFATYYCQQYYTYPFTFGQGTKLEIK
notes: Human IgG, kappa, from pTCAED vectors; also called 3C3-HuB2Hu; 3C3 HuB2Hu
As for B1, in test [1], the “3C3 humanized antibodies Blockade Reporter Assay EC50” value was determined as 0.441 nM. Besides, the “fold affinity loss against parental mouse clone 3C3” value in the test with PDL1-hFc [2] was less than 2 fold. In the test with PDL1-hFc [3], the Kd is 0.0936 nM. In addition, the “OD450-650 nM, 300 ng/ml PDL1 binding” value with PDL1-hFc [4] was determined as 1.35 OD.

B2: 3C3 humanized antibody HuB2Hu2 (antibody, V domains shown)
VH: EVQLQESGPGLVKPSQTLSLTCTVSGYSITSDYWDWIRKPPGKGLEYMGYISYTGSTYYNPSLRSRITISRDTSKNQYSLKLSSVTAADTAVYYCARRGGWLSPFVYWGQGTLVTVSS
VL: DIVMTQTPLSLSVTPGQPASISCKSRQSLLFSSNQKNSLAWYLQKPGQSPQLLIYWASTRESGVPDRFSGSGSGTDFTLKISRVEAEDVGVYYCQQYYTYPFTFGQGTKLEIK
notes: Human IgG, kappa, from pTCAED vectors; also called 3C3-HuB2Hu2; 3C3 HuB2Hu2
As for B2, the “3C3 humanized antibodies Blockade Reporter Assay EC50” value in test [1] is 0.409 nM. The “fold affinity loss against parental mouse clone 3C3” value in the test with PDL1-hFc [2] was less than 2 fold. Moreover, the affinity in the test with PDL1-hFc [3], expressed as Kd, was 0.101 nM. Besides, the “OD450-650 nM, 300 ng/ml PDL1 binding” value with PDL1-hFc [4] is 1.05 OD.

B3: mouse hybridoma anti-human PD-L1 antibody 1G8 (antibody, V domains shown)
VH: QVQLQESGPGLAKPSQTLSLTCSVTGYSITSDYWNWIRKFPGNKLEFMGYISYTGSTYYNPSLKSRISITRDTSKNQYYLQLNSVTTEDTATYYCARRGEWLSPFAYWGQGTLVTVSA
VL: DIVMSQSPSSLGVSVGEKITMSCKSSQSLLYSSNQKNSLAWYQQKPGQSPKLLIYWASTRESGVPDRFTGSGSGTDFTLTISSVKSEDLAVYYCQQYYTYPFTFGAGTNLELK
notes: Mouse monoclonal antibody from hybridoma, detected with goat anti-mouse IgG; also called mAb 1G8; mouse clone 1G8
With B3, the “Luc repoter EC50” value in test [5] is 0.62 nM. In addition, in test [6], the “PD1/PD-L1 Blockade Reporter Assay EC50” value came to 0.62 nM. Moreover, the Kd in test [7] is 0.0435 nM.

B4: mouse hybridoma anti-human PD-L1 antibody 3C3 (antibody, V domains shown)
VH: EVQLQESGPGLTKPSQTLSLTCSVTGYSITSDYWDWIRKFPGNKLEYMGYISYTGSTYYNPSLRSRISITRDTSKNQYYLQLSSVTSEDSATYYCARRGGWLSPFVYWGQGTLVTVSA
VL: DTVMSQSPSSLGVSVGERVTLTCKSRQSLLFSSNQKNSLAWYQQKPGQSPKLLIYWASTRESGVPDRFTGSGSGTDFTLTISSVKSEDLAVYYCQQYYTYPFTFGAGTSLELK
notes: Mouse monoclonal antibody from hybridoma, detected with goat anti-mouse IgG; also called mAb 3C3; mouse clone 3C3
As to B4, in test [5], the “Luc repoter EC50” value is 0.58 nM. Further, the “PD1/PD-L1 Blockade Reporter Assay EC50” value in test [6] turned out to be 0.582 nM. The affinity in test [7], expressed as Kd, was 0.0356 nM.

These data come from patent publication US20240209095A1 (DEVELOPMENT CENTER FOR BIOTECHNOLOGY, published 2024).
